Experimental data published in PMC10752894, “Structural basis for DNA proofreading” (Nature Communications, 2023).

Molecular target: ΔG-loop Polγ holoenzyme (Homo sapiens, UniProt P54098;Q9UHN1 26-760+770-1239;26-485, internal_change)
Experiment: EMSA; 10 mM Mg2+; affinity not affected by deletion; EMSA: 40 mM Tris-HCl pH 7.9, 60 mM NaCl, 10 mM MgCl2, 5% glycerol, 20 mM 2-mercaptoethanol, 0.1 mg/ml BSA, 150 nM Cy3 scaffold, 10 min room temperature; 0.5% agarose, 0.5X TBE, 4 °C
Details: protein: recombinant; tags: N-terminal His (both subunits); copies: 1;2; label: 5'-Cy3 on DNA24; primer-template, 24 nt 5' template overhang

ΔG-loop Polγ holoenzyme, sequence (P54098 other isoform, or with tags, fused parts or gaps | mutant, chain 1 of 2): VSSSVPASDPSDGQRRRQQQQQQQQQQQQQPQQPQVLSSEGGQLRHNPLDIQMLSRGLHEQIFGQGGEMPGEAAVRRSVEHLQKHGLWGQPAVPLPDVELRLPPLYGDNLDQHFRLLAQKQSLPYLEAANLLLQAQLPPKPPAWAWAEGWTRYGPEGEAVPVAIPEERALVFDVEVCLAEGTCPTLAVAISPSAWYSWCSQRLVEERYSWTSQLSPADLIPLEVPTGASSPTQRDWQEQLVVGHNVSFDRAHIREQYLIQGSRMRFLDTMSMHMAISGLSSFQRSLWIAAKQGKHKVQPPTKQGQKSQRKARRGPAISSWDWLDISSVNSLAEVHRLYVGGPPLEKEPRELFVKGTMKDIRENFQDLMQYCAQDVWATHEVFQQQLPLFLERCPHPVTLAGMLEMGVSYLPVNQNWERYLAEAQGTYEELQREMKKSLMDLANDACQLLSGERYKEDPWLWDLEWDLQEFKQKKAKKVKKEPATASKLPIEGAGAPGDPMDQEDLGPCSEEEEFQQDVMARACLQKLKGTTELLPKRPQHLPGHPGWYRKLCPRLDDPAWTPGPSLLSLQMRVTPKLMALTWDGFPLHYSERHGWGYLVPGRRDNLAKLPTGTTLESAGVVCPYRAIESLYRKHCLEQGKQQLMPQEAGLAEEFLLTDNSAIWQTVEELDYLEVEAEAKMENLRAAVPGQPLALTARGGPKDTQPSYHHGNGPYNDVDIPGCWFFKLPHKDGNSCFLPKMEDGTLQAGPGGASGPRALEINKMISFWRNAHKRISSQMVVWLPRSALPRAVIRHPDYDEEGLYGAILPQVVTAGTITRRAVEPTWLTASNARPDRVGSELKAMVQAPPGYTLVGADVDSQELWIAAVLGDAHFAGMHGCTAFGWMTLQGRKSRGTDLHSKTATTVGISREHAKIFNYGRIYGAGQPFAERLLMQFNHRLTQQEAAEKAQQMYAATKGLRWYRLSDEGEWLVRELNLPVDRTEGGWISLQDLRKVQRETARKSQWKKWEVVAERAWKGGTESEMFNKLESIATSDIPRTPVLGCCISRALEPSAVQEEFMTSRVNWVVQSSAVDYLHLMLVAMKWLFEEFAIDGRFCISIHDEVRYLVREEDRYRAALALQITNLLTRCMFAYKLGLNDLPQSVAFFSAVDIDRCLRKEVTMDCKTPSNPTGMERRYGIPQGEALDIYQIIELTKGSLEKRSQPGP
ΔG-loop Polγ holoenzyme, sequence (Q9UHN1 26-485, stated change not applied, chain 2 of 2): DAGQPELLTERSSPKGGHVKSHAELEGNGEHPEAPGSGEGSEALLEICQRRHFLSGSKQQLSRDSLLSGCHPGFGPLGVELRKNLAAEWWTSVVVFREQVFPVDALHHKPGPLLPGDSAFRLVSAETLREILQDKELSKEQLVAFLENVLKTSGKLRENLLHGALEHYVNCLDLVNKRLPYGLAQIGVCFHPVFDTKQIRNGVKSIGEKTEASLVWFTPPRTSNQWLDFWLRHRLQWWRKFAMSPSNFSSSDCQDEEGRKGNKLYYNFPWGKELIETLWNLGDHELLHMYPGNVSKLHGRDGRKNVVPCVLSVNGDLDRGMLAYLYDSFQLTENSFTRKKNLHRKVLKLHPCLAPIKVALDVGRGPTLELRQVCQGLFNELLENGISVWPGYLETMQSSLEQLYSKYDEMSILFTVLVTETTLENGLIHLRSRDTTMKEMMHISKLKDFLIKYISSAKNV

B1: DNA24/DNA24TS (dsDNA)
DNA 1: GGTACAACTTGACGACATAGCGTG
DNA 2: CGGTCGAGTCACGACTCCGATTATCACGCTATGTCGTCAAGTTGTACC
B1: binds.
